Data taken from patent US20150011431A1 (Scripps Research, published 2015).

T1: CXCR1 (UniProt P25024 1-350, limits assumed)
T1 construct: whole, on cells; DiscoveRx cells engineered with a luminescent reporter enzyme for beta-arrestin recruitment; also called CXCR1-U2OS; U2OS-CXCR1
T1 sequence (looked up): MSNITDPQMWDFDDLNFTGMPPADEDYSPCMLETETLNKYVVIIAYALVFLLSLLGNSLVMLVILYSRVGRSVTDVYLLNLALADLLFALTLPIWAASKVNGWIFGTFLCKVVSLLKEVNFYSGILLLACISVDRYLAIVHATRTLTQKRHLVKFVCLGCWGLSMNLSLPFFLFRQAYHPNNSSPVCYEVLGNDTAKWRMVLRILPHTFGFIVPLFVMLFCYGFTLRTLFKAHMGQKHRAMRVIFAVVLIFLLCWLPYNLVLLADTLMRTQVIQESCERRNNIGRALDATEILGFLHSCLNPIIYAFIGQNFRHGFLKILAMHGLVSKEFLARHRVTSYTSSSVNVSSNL

B1: IgG with VH4-34+CDR3-IL8_CDR1 Cow CDR2 Cow and light chain V1-51 CDR2 DNN to GDT (antibody)
heavy: not shown
light: QSVLTQPPSVSAAPGQKVTISCSGSSSNIGNNYVSWYQQLPGTAPKLLIYGDTKRPSGIPDRFSGSKSGTSATLGITGLQTGDEADYYCASAEDSSSNAVFGSGTTLTVLGQPKAAPSVTLFPPSSEELQANKATLVCLISDFYPGAVTVAWKADSSPVKAGVETTTPSKQSNNKYAASSYLSLTPEQWKSHRSYSCQVTHEGSTVEKTVAPTECS
notes: IgG, human IgG1 CH1-CH2-CH3; normalized to 10 nM; also called VH4-34 CDR3-IL8 CDR1-Cow & CDR2-Cow / V1-51 CDR2 DNN to GDT
B2: IgG with VH1-46+CDR3-IL8 (antibody)
VH: QVQLVQSGAEVKKPGASVKVSCKASGYTFTSYYMHWVRQAPGQGLEWMGIINPSGGSTSYAQKFQGRVTMTRDTSTSTVYMELSSLRSEDTAVYYCTSVHQETKKYQSPRSAKELRCQCIKTYSKPFHPKFIKELRVIESGPHCANTEIIVKLSDGRELCLDPKENWVQRVVEKFLKRAENSGSGSYTYNYEWHVDVWGQGLLVTVSSAS
light: not shown
notes: IgG; VH cloned before human IgG1 CH1-CH2-CH3 in HC pFuse; cell culture supernatant; also called VH1-46 BLVCDR3IL8
B3: IgG with VH1-24+CDR3-IL8 (antibody)
VH: QVQLVQSGAEVKKPGASVKVSCKVSGYTLTELSMHWVRQAPGKGLEWMGGFDPEDGETIYAQKFQGRVTMTEDTSTDTAYMELSSLRSEDTAVYYCTSVHQETKKYQSPRSAKELRCQCIKTYSKPFHPKFIKELRVIESGPHCANTEIIVKLSDGRELCLDPKENWVQRVVEKFLKRAENSGSGSYTYNYEWHVDVWGQGLLVTVSSAS
light: not shown
notes: IgG; VH cloned before human IgG1 CH1-CH2-CH3 in HC pFuse; cell culture supernatant; also called VH1-24 BLVCDR3IL8
B4: IgG with VH4-4+CDR3-IL8 (antibody)
VH: QVQLQESGPGLVKPSETLSLTCTVSGGSISSYYWSWIRQPAGKGLEWIGRIYTSGSTNYNPSLKSRVTMSVDTSKNQFSLKLSSVTAADTAVYYCTSVHQETKKYQSPRSAKELRCQCIKTYSKPFHPKFIKELRVIESGPHCANTEIIVKLSDGRELCLDPKENWVQRVVEKFLKRAENSGSGSYTYNYEWHVDVWGQGLLVTVSSAS
light: not shown
notes: IgG; VH cloned before human IgG1 CH1-CH2-CH3 in HC pFuse; also called VH4-4 BLVCDR3IL8
B5: IgG with VH1-69+CDR3-IL8 (antibody)
VH: QVQLVQSGAEVKKPGSSVKVSCKASGGTFSSYAISWVRQAPGQGLEWMGGIIPIFGTANYAQKFQGRVTITADKSTSTAYMELSSLRSEDTAVYYCTSVHQETKKYQSPRSAKELRCQCIKTYSKPFHPKFIKELRVIESGPHCANTEIIVKLSDGRELCLDPKENWVQRVVEKFLKRAENSGSGSYTYNYEWHVDVWGQGLLVTVSSAS
light: not shown
notes: IgG; VH cloned before human IgG1 CH1-CH2-CH3 in HC pFuse; cell culture supernatant; also called VH1-69 BLVCDR3IL8
B6: IgG with VH4-34+CDR3-IL8_CDR1 G31D, Y32K and BLV1H12 light chain (antibody)
VH: QVQLQQWGAGLLKPSETLSLTCAVYGGSFSDKYWSWIRQPPGKGLEWIGEINHSGSTNYNPSLKSRVTISVDTSKNQFSLKLSSVTAADTAVYYCTSVHQETKKYQSPRSAKELRCQCIKTYSKPFHPKFIKELRVIESGPHCANTEIIVKLSDGRELCLDPKENWVQRVVEKFLKRAENSGSGSYTYNYEWHVDVWGQGLLVTVSSAS
VL: QAVLNQPSSVSGSLGQRVSITCSGSSSNVGNGYVSWYQLIPGSAPRTLIYGDTSRASGVPDRFSGSRSGNTATLTISSLQAEDEADYFCASAEDSSSNAVFGSGTTLTVLGQPKSPPSVTLFPPSTEELNGNKATLVCLISDFYPGSVTVVWKADGSTITRNVETTRASKQSNSKYAASSYLSLTSSDWKSKGSYSCEVTHEGSTVTKTVKPSECS
notes: IgG, human IgG1 CH1-CH2-CH3; also called VH4-34 + CDR3-IL8 + E31D, Y32K
B7: IgG with VH4-34+CDR3-IL8_CDR1 Cow and BLV1H12 light chain (antibody)
VH: QVQLQQWGAGLLKPSETLSLTCTASGFSLSDKAVGWIRQPPGKGLEWIGEINHSGSTNYNPSLKSRVTISVDTSKNQFSLKLSSVTAADTAVYYCTSVHQETKKYQSPRSAKELRCQCIKTYSKPFHPKFIKELRVIESGPHCANTEIIVKLSDGRELCLDPKENWVQRVVEKFLKRAENSGSGSYTYNYEWHVDVWGQGLLVTVSSAS
VL: QAVLNQPSSVSGSLGQRVSITCSGSSSNVGNGYVSWYQLIPGSAPRTLIYGDTSRASGVPDRFSGSRSGNTATLTISSLQAEDEADYFCASAEDSSSNAVFGSGTTLTVLGQPKSPPSVTLFPPSTEELNGNKATLVCLISDFYPGSVTVVWKADGSTITRNVETTRASKQSNSKYAASSYLSLTSSDWKSKGSYSCEVTHEGSTVTKTVKPSECS
notes: IgG, human IgG1 CH1-CH2-CH3; also called VH4-34 + CDR3-IL8 + Cow CDR1

How the values were obtained:
CXCR1 [1] = molecular target: T1, CXCR1; experiment: flow cytometry with 2 ug/ml heparin sulfate, IgG normalized to 10 nM; CXCR1-U2OS against parental U2OS cells
Experimental: (§1) Cell culture supernatants were then tested for binding to cells by flow cytometry. The adherent U2OS or CXCR1-U2OS cells were dissociated with Accutase (Innovative Cell Technologies, Inc., San Diego, Calif.), neutralized with an equal volume of media containing 10% serum, centrifuged at 1000 g, and resuspended in PBS with 2% BSA. Next, cells were dispensed into microtiter plates to achieve between 30,000 to 300,000 cells per well, centrifuged again, and resuspended in cell culture supernatant containing expressed IgG, or a dilution of IgG-containing cell culture supernatant. A fluorescent-conjugated anti-Human Fc antibody was used to detect binding of the expressed antibody to cells.
In an exemplary method, variants of V1-51 were made by overlap PCR and subcloned into pFuse vector for expression as described in Example 4. […] These V1-51 variants were paired with heavy chains encoding VH4-34+CDR3-IL8 (SEQ ID NO: 430), VH4-34+CDR3-IL8_CDR1 Cow (SEQ ID NO: 432), VH4-34+CDR3-IL8_CDR2 Cow (SEQ ID NO: 433), or VH4-34+CDR3-IL8_CDR1 Cow CDR2 Cow, (SEQ ID NO: 436). Transfections and ELISA were carried out as described above, and flow cytometry was used to evaluate CXCR1 binding specificity as previously described, with the modification that cells were resuspended in 2% BSA in PBS plus 2 ug/ml Heparin sulfate, and IgGs were normalized to 10 nM during incubation on cells.

CXCR1 [2] = molecular target: T1, CXCR1; experiment: flow cytometry, IgG-containing supernatant on CXCR1-U2OS cells, fluorescent anti-human Fc
Experimental: as §1, with “In an exemplary method, BLV1H12 IgG comprising a CDR3 with an IL-8 insert (e.g., the IL-8 sequence replaced a portion of the CDR3) was evaluated for binding to CXCR1 expressing cells by flow cytometry. Briefly, a cell line expressing functionally validated CXCR1 derived from U2OS cells was obtained from DiscoveRx and cultured per manufacturer's instructions (Cat#93-0226C3, DiscoveRx Corporation, Freemont, Calif.). The parental cell line U2OS was obtained from ATCC and cultured under the same conditions as the CXCR1 cells. Cell culture” for “Cell culture”
(§2) Additionally, the human germline CDR3-IL8 IgGs described in Example 5 were evaluated for binding to CXCR1 expressing cells by flow cytometry as described above. IgG binding to CXCR1-U2OS cells is indicated by higher fluorescence values, but non-specific binding to U2OS parental cells is also detectable.

CXCR1 [3] = molecular target: T1, CXCR1; experiment: flow cytometry; fluorescence on CXCR1-U2OS cells over fluorescence on parental U2OS cells
Experimental: as §1, with “In an exemplary method, BLV1H12 IgG comprising a CDR3 with an IL-8 insert (e.g., the IL-8 sequence replaced a portion of the CDR3) was evaluated for binding to CXCR1 expressing cells by flow cytometry. Briefly, a cell line expressing functionally validated CXCR1 derived from U2OS cells was obtained from DiscoveRx and cultured per manufacturer's instructions (Cat#93-0226C3, DiscoveRx Corporation, Freemont, Calif.). The parental cell line U2OS was obtained from ATCC and cultured under the same conditions as the CXCR1 cells. Cell culture” for “Cell culture”
as §2

CXCR1 [4] = molecular target: T1, CXCR1; experiment: as above; remark: listed apart in the source
Experimental: as §1, with “In an exemplary method, BLV1H12 IgG comprising a CDR3 with an IL-8 insert (e.g., the IL-8 sequence replaced a portion of the CDR3) was evaluated for binding to CXCR1 expressing cells by flow cytometry. Briefly, a cell line expressing functionally validated CXCR1 derived from U2OS cells was obtained from DiscoveRx and cultured per manufacturer's instructions (Cat#93-0226C3, DiscoveRx Corporation, Freemont, Calif.). The parental cell line U2OS was obtained from ATCC and cultured under the same conditions as the CXCR1 cells. Cell culture” for “Cell culture”
In an exemplary method, certain residues in VH4-34 CDR1 and/or CDR2 were substituted with corresponding CDR1 and/or CDR2 residues from BLV1H12. Briefly, the pFuse vector encoding heavy chain VH4-34 CDR3-IL8 was modified by overlap PCR to replace all of CDR1 with sequence from BLV1H12 (VH4-34+CDR3-IL8_CDR1 Cow, SEQ ID NO: 432) or all of CDR2 with sequence from BLV1 H12 (VH4-34+CDR3-IL8_CDR2 Cow, SEQ ID NO: 433).

Binder	CXCR1 specificity (CXCR1 [1])	median fluorescence on CXCR1-U2OS (CXCR1 [2])	Ratio of CXCR1/Parental (CXCR1 [3])	FACS CXCR1/Parental Ratio (CXCR1 [4])
B1	16.7	–	–	–
B2	–	6 AFU	1.1	–
B3	–	23 AFU	4.3	–
B4	–	3080 AFU	3.1	–
B5	–	78 AFU	4	–
B6	–	–	–	8.1
B7	–	–	–	2.1
